From patent US20180037620

How the values were obtained:
Assay in all cases: cell_activity
Conditions in all cases: 79/528 porcine fibroblast clones; both TALEN pairs (5-2 and 3-2) plus HR oligo used together
TALEN ETV2 5-2 Right = tested on: TALEN ETV2 5-2 Right
TALEN ETV2 3-2 Right = tested on: TALEN ETV2 3-2 Right
TALEN ETV2 5-2 Left = tested on: TALEN ETV2 5-2 Left
TALEN ETV2 3-2 Left = tested on: TALEN ETV2 3-2 Left

“GGGCTGCACCAGGCT (double strand) [ETV2 5-2 right half-site]” showed an activity (% of clones homozygous for deletion) (TALEN ETV2 5-2 Right) of 15.
Work on “CCCCTAAGGGTCCTG (double strand) [ETV2 3-2 right half-site]” yielded an activity (% of clones homozygous for deletion) (TALEN ETV2 3-2 Right) of 15.
Work on “CTGGCCGGAAATCCCC (double strand) [ETV2 5-2 left half-site]” yielded an activity (% of clones homozygous for deletion) (TALEN ETV2 5-2 Left) of 15.
With “GATCCCAAGTCACACC (double strand) [ETV2 3-2 left half-site]” the activity (% of clones homozygous for deletion) (TALEN ETV2 3-2 Left) was 15.
